We go through 18 sequences from the supplement of paper PMC9170038.

This data set deals with MS2 coat protein. In words: apparent KD of MS2 coat protein; higher = weaker reporter binding. The conditions noted are these: Eterna round: R107. As to the method: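 RNA-MaP round R107: designed RNA switches with theophylline, tryptophan, arginine or FMN aptamers are transcribed on-chip within common flanks. They are titrated with SNAP-549-labelled MS2 coat protein in RNA-MaP buffer (100 mM Tris pH 7.5, 80 mM KCl, 4 mM MgCl2), without ligand or with the indicated ligand. Median apparent KD per design.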

The mark [1] stands for this setting: input ligand: theophylline 20 uM.
[2] abbreviates: input ligand: theophylline 2 mM.
[3] abbreviates: input ligand: tryptophan 2.4 mM.

As to “ACAUGAGGAUCACCCAUGUAAUAAUCAGAAGGAGCGUGGAAUAACACAGGUAGGUCGCUGAUGUUUGGUUAAAAUUAUUCGUGAA [JR_ExcArginiA_Sub001]”, the “apparent KD of MS2 coat protein” value was 12.2 nM (input ligand: arginine 13.2 mM); 13.1 nM (input ligand: none); 16.6 nM under setting [1]; 14 nM under setting [2]; 14 nM under setting [3].
In the case of “ACAUGAGGAUCACCCAUGUAAUGGCACGAUACCAGCUGAUCCCGUGGCCCUUGGCAGCGUCCGGUGUGGUCCGCCGGGUUGGAGC [DDDMULLIN]”, the “apparent KD of MS2 coat protein” value (input ligand: arginine 13.2 mM) came out at 28.7 nM, the “apparent KD of MS2 coat protein” value under setting [1] came to 39.5 nM and the “apparent KD of MS2 coat protein” value under setting [3] came out at 27 nM.
As for “ACAUGAGGAUCACCCAUGUACAUAAGGGAAGGAGCGCGGUGGAACGCAGGUAGGUCGCCCAUAAUAACAAUAAAUAAAUUCAUGU [#04 Same State - Arginine A]”, the “apparent KD of MS2 coat protein” value was 14.7 nM (input ligand: arginine 13.2 mM); 14.7 nM (input ligand: none); 23.6 nM under setting [1]; 17.5 nM under setting [2]; 16.5 nM under setting [3].
Consider “ACAUGAGGAUCACCCAUGUAGCCUAGGGAAGGAGCGGCAUAAAAGCCAGGUAGGUCGCCCGCAUGAGGAUCACCCAUGUCAAGGA [Same State Arginine A GF7]”, for which the “apparent KD of MS2 coat protein” value is, setting by setting: (input ligand: arginine 13.2 mM) 42.8 nM; (input ligand: none) 70 nM; under setting [1], 81.7 nM; under setting [2], 74.9 nM; under setting [3], 61 nM.
On to “ACAUGAGGAUCACCCAUGUAGUAGUCAGAAGGAGCGUGGAAUAACACAGGUAGGUCGCUGAUGUUUGGUUAAAUGUAAUCGUGUA [#30 Same State - Arginine A]”, for which the “apparent KD of MS2 coat protein” value is, setting by setting: (input ligand: arginine 13.2 mM) 19.6 nM; (input ligand: none) 17.4 nM; under setting [1], 27.6 nM; under setting [2], 18.3 nM; under setting [3], 17.8 nM.
Consider “ACAUGAGGAUCACCCAUGUGAAGCAGGGUACGAGGACCGGUACGGCCGCCACUCGAGGAUUAUGCCGAGUGAAUGGCAACGAUGU [whbob_Ex_trypto A_2s19]”, for which the “apparent KD of MS2 coat protein” value stood at 22.7 nM under setting [1] and 16.2 nM under setting [2].
For “ACAUGAGGAUCACCCAUGUGCAGAACGGAUACCAGCGUGCUGGUACGCCCUUGGCAGCCGGACAUGAGGAUCACCCAUGUGUGGA [Exclusion Theophylline A GF28]”, the “apparent KD of MS2 coat protein” value was found to be 32.1 nM (input ligand: arginine 13.2 mM); 42.1 nM (input ligand: none); 55.7 nM under setting [1]; 164 nM under setting [2]; 66 nM under setting [3].
For “ACAUGAGGAUCACCCAUGUGCCGAGUUGAUACCAGACCCGCACUAGUCCCUUGGCAGCAACUACGUGUGGGACACCCAUGUUAAG [qaqmullin]”, the “apparent KD of MS2 coat protein” value turned out to be 29.1 nM (input ligand: arginine 13.2 mM), 85.5 nM under setting [1] and 47.9 nM under setting [3].
Regarding “ACAUGAGGAUCACCCAUGUGGCGACUUGAUACCAGACCCGCACUAGUCCCUUGGCAGCAACUACGUGAGGGACACCCAUGUGAAG”, the “apparent KD of MS2 coat protein” value by setting is: (input ligand: arginine 13.2 mM) 17.6 nM; (input ligand: none) 25.8 nM; under setting [1], 41.6 nM; under setting [2], 38.2 nM; under setting [3], 21.6 nM.
For “ACAUGAGGAUCACCCAUGUUGAACUACCAUCGAGGACCGGUACGGCCGCCACUCGCGUUCUCCUUAGCAUCAAGGUCCGCGAAAC [theeternabot_exclusion_MS2_Trp_A_1]”, the “apparent KD of MS2 coat protein” value by setting is: (input ligand: arginine 13.2 mM) 10.3 nM; under setting [1], 15.3 nM; under setting [2], 13.6 nM.
Consider “ACAUGAGGAUCACCCAUGUUUGAUGUUCCUCGAGGACCGGUACGGCCGCCACUCGAACGAGUGGCGCGCGCGCGCGCGCGCGCGC [aQa]”, for which the “apparent KD of MS2 coat protein” value reads like this: (input ligand: arginine 13.2 mM) 10.9 nM; (input ligand: none) 12.5 nM; under setting [1], 22.9 nM; under setting [2], 14.5 nM; under setting [3], 13 nM.
As to “ACAUGAGGGAUGGAUACCAGCGACAUGAGGAUCACCCAUGUAUGAGGAUCAGCCAUGUUAUGCCCUUGGCAGCCACGAACAUCAG [EDEMULLIN]”, the “apparent KD of MS2 coat protein” value (input ligand: arginine 13.2 mM) was determined as 27.3 nM, the “apparent KD of MS2 coat protein” value under setting [1] came to 45.2 nM and the “apparent KD of MS2 coat protein” value under setting [3] was found to be 29.8 nM.
On to “ACAUGAGGGCGAAGGAGCGCGAACAUGAGGAUCACCCAUGUGUAUGUAUGUUGUCAUGUAUCGCAGGUAGGUCGCGCUGUUACAU [Exclusion Arginine B]”, for which the “apparent KD of MS2 coat protein” value runs as follows: (input ligand: arginine 13.2 mM) 90.1 nM; (input ligand: none) 233 nM; under setting [1], 245 nM; under setting [2], 341 nM; under setting [3], 307 nM.
For “ACAUUAGCCACGGCCGCCACUGCUUUAUGAUUAUAAGGAUUAAUGAACAUGAGGAUCACCCAUGUCAGGACCGGGUGCCUACCAU [SSTryp B #4]”, the “apparent KD of MS2 coat protein” value is 31.4 nM (input ligand: arginine 13.2 mM), 42.3 nM under setting [1] and 39 nM under setting [2].
Regarding “ACAUUUAACUGAAGGAGCGUGAUAAACAUGAGGAUCACCCAUGUACCACAGAUUUUCAGAUCACAGGUAGGUCGCAGACUAAUGA [JR_ExcArginiB_Sub014]”, the “apparent KD of MS2 coat protein” value is 9.29 nM (input ligand: arginine 13.2 mM); 11.1 nM (input ligand: none); 14.1 nM under setting [1]; 11.3 nM under setting [2]; 11.5 nM under setting [3].
As to “ACAUUUAACUGAAGGAGCGUGAUAUGUACAUGAGGAUCACCCAUGUCUUUCAUGUGAUUUUCACAGGUAGGUCGCAGACUAAUGA [JR_ExcArginiB_Sub003]”, the “apparent KD of MS2 coat protein” value by setting is: (input ligand: arginine 13.2 mM) 11.8 nM; (input ligand: none) 11.5 nM; under setting [1], 14.2 nM; under setting [2], 13 nM; under setting [3], 11.6 nM.
The corresponding values for “ACCGCAUCCGUAUAGGAUGCGGCCCAUGAAGGAGCGUGGGAAACCACAGGUAGGUCGCAUGGAAAACAUGAGGAUCACCCAUGUG [Alien]” are 114 nM, 524 nM, 442 nM, 920 nM and 489 nM.
In the case of “ACCUACACGGAAACGUGUAGAAGUAAUGAUACCAGCAUGGAAACAUGCCCUUGGCAGCGUUACAUGAGGAUCACCCAUGUAUGUU [#01 Exclusion-TheophyllineA]”, the “apparent KD of MS2 coat protein” value runs as follows: (input ligand: arginine 13.2 mM) 16.4 nM; under setting [1], 19.9 nM; under setting [3], 15.4 nM.
